As a reminder, the Kd is the constant that tells how readily two partners part at equilibrium. Read a low Kd as higher affinity. In general, koff refers to the rate constant with which the complex falls apart. The low end stands for a long-lived complex, the high end for a short-lived complex. As a reminder, the kon is a measure of how fast the partners come together.

The values below come from patent US7521047 (GPC BIOTECH, dated 2009).

The target in test [1] is T1, human MHC class II DR protein (DRA*0101/DRB1*0401), purified from PRIESS cells (human, UniProt P01903 26-254; P01911 30-266, limits assumed).
T1 construct: mature; also called HLA-DR protein; MHCII
T1 MHC II alpha: not shown
T1 MHC II beta: not shown
Nature of the test: SPR (BIAcore), scFv, chip density 500 RU MHCII. Background: Surface plasmon resonance follows binding to a sensor surface in real time, without labels.

For test [2], the target named is T1, human MHC class II DR protein …. The test can be described thus: ELISA, coated antigen, Fab 100 ng/well, read at 370 nm. The procedure: After washing in PBS the anti-human IgG F(ab')_2-peroxidase-conjugate at a 1:10,000 dilution in TBS (supplemented with 5% w/v non-fat drymilk/0.05% v/v Tween 20) was added to each well for 1 h. Final washes were carried out in PBS followed the addition the substrate POD (Roche).
Background: In an ELISA, binding on a coated surface is turned into a signal by an enzyme label.

The target is the same in test [3]. Nature of the test: SPR (BIAcore), 3 preparations on 3 chips (500, 4000, 3000 RU).
Test [4] addresses chimeric 0401-IE class II molecule on cells of transgenic mice (human/murine chimera). The test can be described thus: cell-based or functional assay.
The target in test [5] is T1, human MHC class II DR protein …. Nature of the test: SPR (BIAcore), MHCII on CM5 chip.
In test [6] the target is HLA-DR on MHH-CALL-4 cells (human). Nature of the test: cell-based or functional assay.
The target of test [7] is T1, human MHC class II DR protein …. Nature of the test: SPR (BIAcore), IgG4 over MHCII on CM5 chip.
Test [8] shares this target. Nature of the test: BiaCore, IgG4. The procedure: The affinities for anti-HLA antibody fragments of the invention were measured as follows. All measurements were conducted in HBS buffer (20 mM HEPES, 150 mM NaCl, pH 7.4) at a flow rate of 20 µl/min at 25° C. on a BIAcore3000 instrument (Biacore AB, Sweden). MHC class II DR protein (prepared as example 1) was diluted in 100 mM sodium acetate pH 4.5 to a concentration of […], and coupled to a CM5 chip (Biacore AB) using standard EDC-NHS coupling chemistry with subsequent ethanolamine treatment as manufacturers directions. The coating density of MHCII was adjusted to between 500 and 4000 RU. Affinities were measured by injection of 5 different concentrations of the different antibodies and using the standard software of the Biacore instrument. Regeneration of the coupled surface was achieved using 10 mM glycine pH 2.3 and 7.5 mM NaOH.

In another test the target is T2, BSA (bovine, UniProt P02769 25-607).
T2 construct: negative control antigen; also called bovine serum albumine
T2 sequence (P02769 25-607 limits assumed): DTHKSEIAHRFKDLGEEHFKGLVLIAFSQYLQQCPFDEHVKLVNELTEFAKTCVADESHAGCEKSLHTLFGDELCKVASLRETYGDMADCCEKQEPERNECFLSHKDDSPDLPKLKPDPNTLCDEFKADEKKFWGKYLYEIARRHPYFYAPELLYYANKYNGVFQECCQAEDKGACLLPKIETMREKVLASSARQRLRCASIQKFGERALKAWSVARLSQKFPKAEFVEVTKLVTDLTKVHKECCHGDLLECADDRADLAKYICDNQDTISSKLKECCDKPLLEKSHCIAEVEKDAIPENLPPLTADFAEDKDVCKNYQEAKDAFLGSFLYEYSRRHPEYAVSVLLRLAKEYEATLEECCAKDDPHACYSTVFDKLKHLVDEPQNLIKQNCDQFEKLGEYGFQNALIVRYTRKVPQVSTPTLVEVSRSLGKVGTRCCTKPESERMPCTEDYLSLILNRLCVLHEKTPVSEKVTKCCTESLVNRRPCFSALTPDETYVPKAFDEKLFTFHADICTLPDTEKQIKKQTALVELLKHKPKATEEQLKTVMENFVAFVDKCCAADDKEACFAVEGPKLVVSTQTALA
Nature of the test: ELISA, purified coated protein, OD at 370 nm minus background.

A further test deals with HLA-DR on RAJI cells (human). The test can be described thus: cell-based or functional assay.
The target in the next test is HLA-DR on DOHH-2 cells (human). Nature of the test: cell-based or functional assay.
In test [9] the target is HLA-DR on KARPAS-299 cells (human). Nature of the test: cell-based or functional assay.
For another test, the target named is HLA-DR on BJAB cells (human). Nature of the test: cell-based or functional assay.
A further test concerns the target HLA-DR on HC-1 cells (human). The test can be described thus: cell-based or functional assay.
Test [10] concerns the target T3, HLA-DR (DRA*0101/DRB1*0401) on PRIESS cells (human, UniProt P01903 26-254; P01911 30-266).
T3 MHC II alpha: not shown
T3 MHC II beta: not shown
Nature of the test: cell-based or functional assay.

The next test addresses HLA-DR on SR-786 cells (human). The test can be described thus: cell-based or functional assay.
The target in the next test is HLA-DR on BONNA-12 cells (human). The test can be described thus: cell-based or functional assay.
The target of a further test is HLA-DR on EOL-1 cells (human). The test can be described thus: cell-based or functional assay.
The target of another test is HLA-DR on NALM-1 cells (human). Nature of the test: cell-based or functional assay.
In another test the target is HLA-DR on L-363 cells (human). Nature of the test: cell-based or functional assay.
The target of test [11] is HLA-DR on GRANTA-519 cells (human). Nature of the test: cell-based or functional assay.
A further test has as its target HLA-DR on HDLM-2 cells (human). Nature of the test: cell-based or functional assay.
In a further test the target is HLA-DR on HD-MY-Z cells (human). Nature of the test: cell-based or functional assay.
Another test has as its target HLA-DR on ARH-77 cells (human). The test can be described thus: cell-based or functional assay.
The target of another test is HLA-DR on L1236 cells (human). The test can be described thus: cell-based or functional assay.
In a further test the target is HLA-DR on MN-60 cells (human). The test can be described thus: cell-based or functional assay.
In test [12] the target is HLA-DR on MHH-PREB-1 cells (human). The test can be described thus: cell-based or functional assay.
Another test has as its target HLA-DR on L-428 cells (human). Nature of the test: cell-based or functional assay.
The next test deals with HLA-DR on LP-1 cells (human). The test can be described thus: cell-based or functional assay.
Another test deals with HLA-DR on KM-H2 cells (human). Nature of the test: cell-based or functional assay.
Test [13] concerns the target HLA-DR on MHH-CALL-4 cells (human). Nature of the test: cell-based or functional assay. The source holds these as a separate data set.
In test [14] the target is HLA-DR on RPMI-8226 cells (human). The test can be described thus: cell-based or functional assay.
For test [15], the target named is HLA-DR on KARPAS-422 cells (human). Nature of the test: cell-based or functional assay.

B1: MS-GPC-1 scFv (scFv)
chain: EVQLKESGPALVKPTQTLTLTCTFSGFSLSTSGVGVGWIRQPPGKALEWLALIDWDDDKYYSTSLKTRLTISKDTSKNQVVLTMTNMDPVDTATYYCARQYGHRGGFDHWGQGTLVTVSSAGGGSGGGGSGGGGSGGGGSDIVLTQPPSVSGAPGQRVTISCSGSSSNIGSNYVSWYQQLPGTAPKLLIYDNNQRPSGVPDRFSGSKSGTSASLAITGLQSEDEADYYCQSYDFNESVFGGGTKLTVLG
Take B1: in [1], binding was characterised by a dissociation constant (Kd) of 1500 nM, the off-rate (koff) turned out to be 0.061 s⁻¹ and the kon was 41300 M⁻¹ s⁻¹.

B2: MS-GPC-8-6 Fab (Fab, V domains shown)
VH: QVQLKESGPALVKPTQTLTLTCTFSGFSLSTSGVGVGWIRQPPGKALEWLALIDWDDDKYYSTSLKTRLTISKDTSKNQVVLTMTNMDPVDTATYYCARSPRYRGAFDYWGQGTLVTVSS
VL: DIVLTQPPSVSGAPGQRVTISCSGSSSNIGSNYVSWYQQLPGTAPKLLIYDNNQRPSGVPDRFSGSKSGTSASLAITGLQSEDEADYYCQSYDYDHYVFGGGTKLTVLG
notes: Fab: VH-CH1 with FLAG tag and STREP tag II, VL-CL; VH residue 1 is Q in Fab
With B2, in test [2], the ELISA signal was 1.31. For the same molecule, in test [3], the dissociation constant (Kd) worked out at 58.6 nM, the koff stood at 0.0055 s⁻¹ and the kon worked out at 96000 M⁻¹ s⁻¹. In test [4], the “IC50 of inhibition of IL-2 secretion from T-Hyb 1 cells” value is 20 nM (half the concentration of the Fab) and the “Maximum inhibition(%) of IL-2 secretion” value was found to be 100%. In test [5], this molecule had a Kd of 58.6 nM, an off-rate (koff) of 0.00548 s⁻¹ and an association rate constant (kon) of 96000 M⁻¹ s⁻¹. For the same molecule, the “maximum capacity to kill MHH-Call 4 cells” value in test [6] is 76%.

B3: MS-GPC-8-6-13 IgG4 (antibody, V domains shown)
VH: QVQLKESGPALVKPTQTLTLTCTFSGFSLSTSGVGVGWIRQPPGKALEWLALIDWDDDKYYSTSLKTRLTISKDTSKNQVVLTMTNMDPVDTATYYCARSPRYRGAFDYWGQGTLVTVSS
VL: DIVLTQPPSVSGAPGQRVTISCSGSESNIGANYVTWYQQLPGTAPKLLIYDNNQRPSGVPDRFSGSKSGTSASLAITGLQSEDEADYYCQSYDYDHYVFGGGTKLTVLG
notes: human IgG4 (constant region EMBL K01316) with lambda constant region (EMBL M18645), from CHO-K1 cells; also called 305D3; IgG form of MS-GPC-8-6-13
With B3, the Kd in test [7] and in [8] was 0.5 nM in each case. Besides, the koff in test [7] is 3e-05 s⁻¹; in test [8], 3.3e-05 s⁻¹. For the same molecule, the kon in [7] is 70000 M⁻¹ s⁻¹; in test [8], 71000 M⁻¹ s⁻¹. The “IC50 of inhibition of IL-2 secretion from T-Hyb 1 cells” value in test [4] stood at 0.42 nM. Besides, the “Maximum inhibition(%) of IL-2 secretion” value in test [4] worked out at 100%. Moreover, the binding result in the test with BSA is on record as “no binding”. The “% Killing by mAb, 50 nM, 4 h” value with HLA-DR on RAJI cells is 83%; in the test with HLA-DR on DOHH-2 cells it was 53%; in test [9], 76%; with HLA-DR on BJAB cells, 64%; with HLA-DR on HC-1 cells, 93%; in test [10], 74%. Moreover, the “% Killing by mAb, 50 nM, 4 h” value in the test with HLA-DR on SR-786 cells came to 26%; with HLA-DR on BONNA-12 cells, 86%; with HLA-DR on EOL-1 cells, 53%; with HLA-DR on NALM-1 cells it was 65%; in the test with HLA-DR on L-363 cells, 19%; in test [11] it was 73%. Further, the “% Killing by mAb, 50 nM, 4 h” value with HLA-DR on HDLM-2 cells was 90%; in the test with HLA-DR on HD-MY-Z cells, 72%; with HLA-DR on ARH-77 cells, 87%; with HLA-DR on L1236 cells, 66%; with HLA-DR on MN-60 cells, 67%; in [12] it was 11%. The “% Killing by mAb, 50 nM, 4 h” value came to 92% with HLA-DR on L-428 cells; 73% in the test with HLA-DR on LP-1 cells; 87% with HLA-DR on KM-H2 cells; 43% in test [13]; 19% in test [14]; 71% in test [15].
